This note sets out measurements from patent US20050058643A1 (APITOPE TECHNOLOGY BRISTOL, published 2005).

The assay addresses T1, HLA:DR2 (DRB1*1501) MHC Class II molecule (human).
T1 construct: whole, on cells
The experiment in a line: conclusion drawn from presentation and tolerance experiments (fixed HLA-DR2+ APC; HLA:DR2 transgenic mice); no direct binding assay.

Regarding GFKGVDAQGTLSKIF (also called APITOPE-MS-6) [MBP peptide 140-154], the binding result is given as “binds”.
